# ± gives the standard deviation of the averaged measurements.
# Assay: total protein half-life in vivo (active degradation + dilution); higher = more stable protein
# [1] = E. coli NCM3722 delta-clpP delta-lon delta-hslV, growth: N-lim chemostat, doubling time 6 h
# [2] = E. coli NCM3722 delta-clpP, growth: N-lim chemostat, doubling time 6 h
# [3] = E. coli NCM3722 delta-lon, growth: N-lim chemostat, doubling time 6 h
# [4] = E. coli NCM3722 delta-smpB, growth: N-lim chemostat, doubling time 6 h
# [5] = wild type E. coli NCM3722, growth: C-lim chemostat, doubling time 6 h
# [6] = wild type E. coli NCM3722, growth: C-lim chemostat, doubling time 12 h
# [7] = wild type E. coli NCM3722, growth: N-lim chemostat, doubling time 6 h
# [8] = wild type E. coli NCM3722, growth: N-lim chemostat, doubling time 12 h
# [9] = wild type E. coli NCM3722, growth: P-lim chemostat, doubling time 6 h
# [10] = wild type E. coli NCM3722, growth: P-lim chemostat, doubling time 12 h
# [11] = wild type E. coli NCM3722, growth: C-lim chemostat, doubling time 3 h
# [12] = E. coli NCM3722 delta-hslV, growth: N-lim chemostat, doubling time 6 h
Sequence,total protein half-life in vivo [1] [h],total protein half-life in vivo [2] [h],total protein half-life in vivo [3] [h],total protein half-life in vivo [4] [h],total protein half-life in vivo [5] [h],total protein half-life in vivo [6] [h],total protein half-life in vivo [7] [h],total protein half-life in vivo [8] [h],total protein half-life in vivo [9] [h],total protein half-life in vivo [10] [h],total protein half-life in vivo [11] [h],total protein half-life in vivo [12] [h]
MPSARLQQQFIRLWQCCEGKSQDTTLNELAALLSCSRRHMRTLLNTMQDRGWLTWEAEVGRGKRSRLTFLYTGLALQQQRAEDLLEQDRIDQLVQLVGDKATVRQMLVSHLGRSFRQGRHILRVLYYRPLRNLLPGSALRRSETHIARQIFSSLTRINEENGELEADIAHHWQQISPLHWRFFLRPGVHFHHGRELEMDDVIASLKRINTLPLYSHIADIVSPTPWTLDIHLTQPDRWLPLLLGQVPAMILPREWETLSNFASHPIGTGPYAVIRNSTNQLKIQAFDDFFGYRALIDEVNVWVLPEIADEPAGGLMLKGPQGEEKEIESRLEEGCYYLLFDSRTHRGANQQVRDWVSYVLSPTNLVYFAEEQYQQLWFPAYGLLPRWHHARTIKSEKPAGLESLTLTFYQDHSEHRVIAGIMQQILASHQVTLKIKEIDYDQWHTGEIESDIWLNSANFTLPLDFSVFAHLCEVPLLQHCIPIDWQADAARWRNGEMNLANWCQQLVASKAMVPLLHHWLIIQGQRSMRGLRMNTLGWFDFKSAWFAPPDP,6.14 ± 0.11,6.77 ± 0.29,5.83 ± 0.34,5.32 ± 0.33,5.64 ± 0.28,11.9 ± 2.8,5.67 ± 0.6,13.4 ± 0.32,5.35 ± 0.34,9.889 ± 0.087,–,–
MPSTRYQKINAHHYRHIWVVGDIHGEYQLLQSRLHQLSFFPKIDLLISVGDNIDRGPESLDVLRLLNQPWFTSVKGNHEAMALEAFETGDGNMWLASGGDWFFDLNDSEQQEAIDLLLKFHHLPHIIEITNDNIKYAIAHADYPGSEYLFGKEIAESELLWPVDRVQKSLNGELQQINGADYFIFGHMMFDNIQTFANQIYIDTGSPNSGRLSFYKIK,–,–,–,–,–,> 16,4.06,–,–,> 16,–,–
MPTKMRTTRNLLLMATLLGSALFARAAEKEMTIGAIYLDTQGYYAGVRQGVQDAAKDSSVQVQLIETNAQGDISKESTFVDTLVARNVDAIILSAVSENGSSRTVRRASEAGIPVICYNTCINQKGVDKYVSAYLVGDPLEFGKKLGNAAADYFIANKIDQPKIAVINCEAFEVCVQRRKGFEEVLKSRVPGAQIVANQEGTVLDKAISVGEKLIISTPDLNAIMGESGGATLGAVKAVRNQNQAGKIAVFGSDMTTEIAQELENNQVLKAVVDISGKKMGNAVFAQTLKVINKQADGEKVIQVPIDLYTKTEDGKQWLATHVDGLP,–,–,> 8,5.48 ± 2.3,6.18 ± 0.59,10.2 ± 0.31,–,–,> 8,13.19 ± 0.1,3.51 ± 0.069,–
MPTQEAKAHHVGEWASLRNTSPEIAEAIFEVAGYDEKMAEKIWEEGSDEVLVKAFAKTDKDSLFWGEQTIERKNV [P0AB14],5.53 ± 0.41,–,3.45 ± 0.75,2.46 ± 0.13,4.15 ± 0.58,5.68 ± 1,2.39 ± 0.054,3.85 ± 1.1,3.02 ± 0.39,5.43 ± 0.18,2.55 ± 0.13,2.63
MPVFALLALVAYSVSLALIVPGLLQKNGGWRRMAIISAVIALVCHAIALEARILPDGDSGQNLSLLNVGSLVSLMICTVMTIVASRNRGWLLLPIVYAFALINLALATFMPNEYITHLEATPGMLVHIGLSLFSYATLIIAALYALQLAWIDYQLKNKKLAFNQEMPPLMSIERKMFHITQIGVVLLTLTLCTGLFYMHNLFSMENIDKAVLSIVAWFVYIVLLWGHYHEGWRGRRVVWFNVAGAVILTLAYFGSRIVQQLIS,–,–,–,–,–,13.6,6.45,–,–,15.5,–,–
MPVLHNRISNDALKAKMLAESEPRTTISFYKYFHIADPKATRDALYQLFTALNVFGRVYLAHEGINAQISVPASNVETFRAQLYAFDPALEGLRLNIALDDDGKSFWVLRMKVRDRIVADGIDDPHFDASNVGEYLQAAEVNAMLDDPDALFIDMRNHYEYEVGHFENALEIPADTFREQLPKAVEMMQAHKDKKIVMYCTGGIRCEKASAWMKHNGFNKVWHIEGGIIEYARKAREQGLPVRFIGKNFVFDERMGERISDEIIAHCHQCGAPCDSHTNCKNDGCHLLFIQCPVCAEKYKGCCSEICCEESALPPEEQRRRRAGRENGNKIFNKSRGRLNTTLCIPDPTE,5.01 ± 0.67,0.746 ± 0.024,0.483,0.56,0.308,0.65,–,0.808,0.402 ± 0.34,1.16 ± 1.1,0.343 ± 0.0081,0.396
MQAATVVINRRALRHNLQRLRELAPASKMVAVVKANAYGHGLLETARTLPDADAFGVARLEEALRLRAGGITKPVLLLEGFFDARDLPTISAQHFHTAVHNEEQLAALEEASLDEPVTVWMKLDTGMHRLGVRPEQAEAFYHRLTQCKNVRQPVNIVSHFARADEPKCGATEKQLAIFNTFCEGKPGQRSIAASGGILLWPQSHFDWVRPGIILYGVSPLEDRSTGADFGCQPVMSLTSSLIAVREHKAGEPVGYGGTWVSERDTRLGVVAMGYGDGYPRAAPSGTPVLVNGREVPIVGRVAMDMICVDLGPQAQDKAGDPVILWGEGLPVERIAEMTKVSAYELITRLTSRVAMKYVD [P0A6B4],5.14 ± 0.16,4.27 ± 0.085,4.99 ± 0.29,4.58 ± 1.3,5.75 ± 0.44,11 ± 1.9,4.39 ± 0.14,7.99 ± 0.34,5.87 ± 0.2,11.53 ± 0.057,3.1 ± 0.046,5.12 ± 0.41

# From the supplement of paper PMC11246515
